Experimental data from patent publication US7387779B2, “Anti-angiogenic proteins and fragments and methods of use thereof” (Beth Israel Deaconess Medical Center, priority 1998, dated 2008).

What was measured:
HUVECs [1] = assay: Endothelial cell migration, Boyden chamber; format: cell-based, human
Method: In the process of angiogenesis, endothelial cells not only proliferate but also migrate. Therefore, the effect of Canstatin on endothelial cell migration was assessed. The inhibitory effect of Canstatin and endostatin on FBS-induced chemotaxis was tested on human umbilical endothelial cells (HUVECs) using the Boyden chamber assay (Neuro-Probe, Inc., Cabin John, Md., USA). HUVECs cells were grown in M199 (Life Technologies/Gibco BRL, Gaithersburg, Md., USA) containing 10% FBS and 5 ng/ml DiC 18(3) living fluorescent stain (Molecular Probes, Inc., Eugene, Oreg., USA) overnight. After trypsinizing, washing and diluting cells in M199 containing 0.5% FBS, 60,000 cells were seeded in the upper chamber wells, together with or without Canstatin ([…]). M199 medium containing 2% FBS was placed in the lower chamber as a chemotactant. The cell-containing compartments were separated from the chemotactant with polycarbonate filters (Poretics Corp., Livermore, Calif., USA) of 8 μm pore size. […] Using a fluorescent high power field, several independent homogenous images were recorded by a digital SenSys™ camera operated with Image Processing Software PMIS (Roper Scientific/Photometrics, Tucson, Ariz., USA). Cells were counted by employing the OPTIMIZE 6.0 software-program (Media Cybernetics, Rochester, N.Y.) (Klemke, R. L. et al., 1994, J. Cell. Biol. 127:859-66).

FLIP = FLIP protein levels in HUVEC; format: cell-based, human; details: one hour after treatment, persisting up to 24 hours
Method: FLIP Protein Levels. HUVEC cells were treated as for the ERK assay, supra, and harvested at 0, 1, 3, 6, and 24 hours. FLIP protein levels in serum treated HUVEC cells and serum+Canstatin-treated HUVEC cells were quantified using anti-FLIP antibody (Sata, M. et al., 1998, J. Biol. Chem. 273:33103-6) and normalized for protein loading using levels of vinculin and plotted as a percentage of the 0 hour time points.

HUVECs [2] = assay: Total protein synthesis, 35S-methionine incorporation; format: cell-based, human; details: 4.5 μM; 24 hours of serum stimulation; rapamycin 100 ng/ml
Method: Primary human renal epithelial cells (HRE) were purchased from Clonetics (San Diego, Calif., USA) and were maintained in REGM (Clonetics Corp.). Other cell lines were obtained and maintained as described above. Cells were serum-starved for 24 hrs (0.5% FCS), stimulated with 10% FCS in the presence of T3 peptide, Tumstatin-44-131, endostatin or rapamycin for 12-24 hours. After pre-incubation of cells in methionine-free media for 1 hour, cells were labeled with ^35S-methionine for 1 hour and incorporation of radioactivity into trichloracetic acid precipitates was analyzed (Sudhakar, A. et al., 2000, Biochem. 39:12929-38; Maeshima, Y. et al., 1996, J. Amer. Soc. Nephrol. 7:2219-29). ANOVA with a one-tailed Student's t test was used to identify significant differences in multiple comparisons in the present study. A level of P<0.05 was considered statistically significant.

bovine endothelial cells = assay: Cap-dependent (LUC) / cap-independent (CAT) translation reporter; format: cell-based; details: 4.5 μM; 21 hours
PC-3 cells = assay: MTT cell viability assay; format: cell-based, human; details: 0-50 μg/ml
Method: Cell viability was measured by MTT assay, as described above.
The effects of Tumstatin-44-131 and Tum-5-125-C-A on cell viability of C-PAE cells were not seen in control PC-3 and DU-145 cells, as shown in FIGS. 52C and 52D. […] The activity of Tumstatin-44-131 is therefore specific to endothelial cells.

HPE cells = assay: Proliferation, methylene blue staining; format: cell-based, human
Method: In the methylene-blue staining method, 7000 cells were plated into each well of a 96-well plate, and treated as described above. Cells were then counted using the method of Oliver et al. (1989, J. Cell. Sci. 92:513-8). After 48 hours of treatment, all wells were washed with 100 μl of PBS, and the cells fixed with 10% formalin in neutral-buffered saline (Sigma Chemical Co., St. Louis, Mo., USA). The cells were then stained with 1% methylene blue (Sigma) in 0.01M borate buffer, pH 8.5. Wells were washed with 0.01M borate buffer, and the methylene blue extracted from the cells with 0.1N HCl/ethanol, and the absorbance measured in a microplate reader (Bio-Rad, Hercules, Calif., USA) at 655 nm. Polymyxin B (Sigma) at a final concentration of 5 μg/ml was used to inactivate endotoxin (Liu, S. et al., 1997, Clin. Biochem. 30:455-63).
Endothelial cell proliferation was performed by ^3H-thymidine incorporation or methylene blue staining as described above in Example 25. C-PAE cells (passages 2-4) were grown to confluence and kept contact inhibited for 48 hours. 786-O, PC-3 and WM-164 cells were used as non-endothelial controls, and were cultured as described in Example 25, above. HPE (human primary prostate epithelial cells) were cultured in keratinocyte-SFM supplemented with bovine pituitary and recombinant human EGF (Life Technologies/Gibco BRL, Gaithersburg, Md., USA). […]

WM-164 cells = assay: MTT cell viability assay; format: cell-based, human
Excerpt: The MTT assay was used to evaluate cell viability in C-PAE endothelial cells and WM-164 melanoma cells after treatment with Tumstatin, Tum-1, Tum-2, Tum-3 and Tum-4. The results are shown in FIGS. 34A and 34B, which are a pair of graphs showing the effect of increasing concentration (x-axis) of Tumstatin, Tum-1, Tum-2, Tum-3 and Tum-4 on the cell viability (y-axis) of C-PAE cells (FIG. 34A) and WM-164 cells (FIG. 34B). Each point represents the mean ±the standard error of the mean for triplicate wells.

αvβ3 integrin protein = molecular target: T1, αvβ3 integrin protein (Homo sapiens, UniProt P05106+P06756); assay: Competition proliferation assay with soluble αvβ3 protein, WM-164 cells; format: cell-based; details: αvβ3 protein at 2 μg/ml
T1 construct: purchased CHEMICON Int'l, Temecula, Calif., USA
Method: αvβ3 was then tested for its ability to negate the anti-proliferative effect of Tum-4 on melanoma cells. Tumstatin and Tum-4 were pre-incubated for 30 minutes at room temperature with αvβ3 integrin protein, then added to WM-164 cells grown in 96-well plates. After 48 hours of incubation, the increase in cell number was determined by methylene blue staining. Tumstatin had no effect on WM-164 cells.

T1 sequence (P06756 31-889 limits assumed): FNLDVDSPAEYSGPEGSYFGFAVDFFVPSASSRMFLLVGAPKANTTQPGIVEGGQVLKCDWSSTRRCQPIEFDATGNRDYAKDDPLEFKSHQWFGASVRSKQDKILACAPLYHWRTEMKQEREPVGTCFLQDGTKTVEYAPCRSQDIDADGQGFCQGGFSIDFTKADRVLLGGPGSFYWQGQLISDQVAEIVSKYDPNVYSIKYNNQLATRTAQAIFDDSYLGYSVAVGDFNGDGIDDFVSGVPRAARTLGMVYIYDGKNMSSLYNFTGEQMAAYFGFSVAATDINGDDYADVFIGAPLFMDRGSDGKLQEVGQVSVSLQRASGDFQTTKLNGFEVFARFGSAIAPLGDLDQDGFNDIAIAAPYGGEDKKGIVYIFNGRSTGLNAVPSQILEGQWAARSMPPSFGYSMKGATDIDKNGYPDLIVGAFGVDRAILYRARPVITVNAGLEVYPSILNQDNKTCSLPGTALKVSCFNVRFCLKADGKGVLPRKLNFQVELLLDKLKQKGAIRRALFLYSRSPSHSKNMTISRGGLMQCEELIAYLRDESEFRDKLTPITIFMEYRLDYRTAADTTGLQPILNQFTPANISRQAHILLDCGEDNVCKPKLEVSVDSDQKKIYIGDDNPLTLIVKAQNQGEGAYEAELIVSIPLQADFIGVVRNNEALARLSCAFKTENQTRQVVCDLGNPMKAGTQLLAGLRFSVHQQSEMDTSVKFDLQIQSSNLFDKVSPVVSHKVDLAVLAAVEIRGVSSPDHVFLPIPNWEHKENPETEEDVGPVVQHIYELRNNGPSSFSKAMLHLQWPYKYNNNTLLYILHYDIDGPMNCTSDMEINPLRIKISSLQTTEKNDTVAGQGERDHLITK
T1 sequence (P06756 891-1048 partner limits assumed): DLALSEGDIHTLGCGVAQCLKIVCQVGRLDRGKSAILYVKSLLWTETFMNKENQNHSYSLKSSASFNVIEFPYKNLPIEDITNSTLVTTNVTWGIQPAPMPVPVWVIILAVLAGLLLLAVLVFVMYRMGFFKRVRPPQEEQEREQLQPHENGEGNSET
T1 sequence (P05106 27-788): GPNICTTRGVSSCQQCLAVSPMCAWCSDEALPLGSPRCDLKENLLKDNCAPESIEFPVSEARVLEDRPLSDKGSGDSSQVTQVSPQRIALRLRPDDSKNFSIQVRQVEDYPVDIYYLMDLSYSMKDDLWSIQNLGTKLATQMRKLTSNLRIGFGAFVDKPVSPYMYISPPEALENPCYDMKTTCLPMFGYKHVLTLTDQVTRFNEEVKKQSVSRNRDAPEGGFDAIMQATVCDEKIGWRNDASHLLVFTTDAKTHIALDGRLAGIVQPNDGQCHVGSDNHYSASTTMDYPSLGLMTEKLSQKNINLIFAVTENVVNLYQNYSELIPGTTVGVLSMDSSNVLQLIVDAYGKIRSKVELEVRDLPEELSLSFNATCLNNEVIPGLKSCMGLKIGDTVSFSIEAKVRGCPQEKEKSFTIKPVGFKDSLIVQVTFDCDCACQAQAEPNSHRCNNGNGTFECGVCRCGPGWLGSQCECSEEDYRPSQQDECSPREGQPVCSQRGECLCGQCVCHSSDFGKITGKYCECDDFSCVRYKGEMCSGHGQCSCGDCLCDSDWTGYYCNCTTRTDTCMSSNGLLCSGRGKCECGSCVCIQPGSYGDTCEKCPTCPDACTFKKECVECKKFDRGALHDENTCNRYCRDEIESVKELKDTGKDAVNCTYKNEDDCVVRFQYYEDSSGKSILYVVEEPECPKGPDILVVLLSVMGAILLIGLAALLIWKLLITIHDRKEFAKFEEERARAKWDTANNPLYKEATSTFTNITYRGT

B1: Canstatin: NC1 domain of the α2 chain of Type IV collagen (SEQ ID NO:6) (protein, listed as Homo sapiens)
chain: VSIGYLLVKHSQTDQEPMCPVGMNKLWSGYSLLYFEGQEKAHNQDLGLAGSCLARFSTMPFLYCNPGDVCYYASRNDKSYWLSTTAPLPMMPVAEDEIKPYISRCSVCEAPAIAIAVHSQDVSIPHCPAGWRSLWIGYSFLMHTAAGDEGGGQSLVSPGSCLEDFRATPFIECNGGRGTCHYYANKYSFWLTTIPEQSFQGSPSADTLKAGLIRTHISRCQVCMKNL
concentration with significant effect on migration (HUVECs [1]): 10 ng/mL | FLIP protein levels (FLIP): decrease in FLIP protein levels

B2: endostatin: tumor associated angiogenesis inhibitor used as comparator (protein, UniProt P39060 1572-1754, looked up)
Endostatin: HSHRDFQPVLHLVALNSPLSGGMRGIRGADFQCFQQARAVGLAGTFRAFLSSRLQDLYSIVRRADRAAVPIVNLKDELLFPSWEALFSGSEGPLKPGARIFSFDGKDVLRHPTWPQKSVWHGSDPNGRRLTESYCETWRTEAPSATGQASSLLGGRLLGQSAASCHHAYIVLCIENSFMTASK
modifications: Endostatin
inhibition of protein synthesis (HUVECs [2]): did not inhibit protein synthesis | decrease of cap-dependent translation of LUC (bovine endothelial cells): did not affect cap-dependent translation

B3: Tumstatin-44-131: residues 44 to 131 of full-length Tumstatin (SEQ ID NO:33) (protein)
chain: FSFLFVQGNQRAHGQDLGTLGSCLQRFTTMPFLFCNVNDVCNFASRNDYSYWLSTPALMPMNMAPITGRALEPYISRCTVCEGPAIAI
modifications: Tumstatin-45-132 (amino acids 45-132 of SEQ ID NO10)
effect on viability of PC-3 cells (PC-3 cells): not seen

B4: Tumstatin: NC1 domain of the α3 chain of type IV collagen, residues 1-244 (SEQ ID NO:10) (protein, listed as Homo sapiens)
chain: GLKGKRGDSGSPATWTTRGFVFTRHSQTTAIPSCPEGTVPLYSGFSFLFVQGNQRAHGQDLGTLGSCLQRFTTMPFLFCNVNDVCNFASRNDYSYWLSTPALMPMNMAPITGRALEPYISRCTVCEGPAIAIAVHSQTTDIPPCPHGWISLWKGFSFIMFTSAGSEGTGQALASPGSCLEEFRASPFLECHGRGTCNYYSNSYSFWLASLNPERMFRKPIPSTVKAGELEKIISRCQVCMKKRH
effect on proliferation of HPE cells (HPE cells): no inhibitory effects

B5: Tum-4: residues 181 to 244 of Tumstatin (SEQ ID NO:25) (protein)
chain: EFRASPFLECHGRGTCNYYSNSYSFWLASLNPERMFRKPIPSTVKAGELEKIISRCQVCMKKRH
modifications: Tum-4 (amino acids 181-244 of SEQ ID NO10)
effect on viability of WM-164 melanoma cells (WM-164 cells): decreased the viability | recovery of anti-proliferative effect by soluble αvβ3 protein (αvβ3 integrin protein): 76.7%
